B1: recombinant hnRNPG RGG1mut (natural protein, human, UniProt P38159 1-391, looked up)
chain: MVEADRPGKLFIGGLNTETNEKALEAVFGKYGRIVEVLLMKDRETNKSRGFAFVTFESPADAKDAARDMNGKSLDGKAIKVEQATKPSFESGRRGPPPPPRSRGPPRGLAGGAGGSGGTAGPPSAGGHMDDGGYSMNFNMSSSRGPLPVKRGPPPRSGGPPPKRSAPSGPVRSSSGMGGRAPVSRGRDSYGGPPRREPLPSRRDVYLSPRDDGYSTKDSYSSRDYPSSRDTRDYAPPPRDYTYRDYGHSSSRDDYPSRGYSDRDGYGRDRDYSDHPSGGSYRDSYESYGNSRSAPPTRGPPPSYGGSSRYDDYSSSRDGYGGSRDSYSSSRSDLYSSGRDRVGRQERGLPPSMERGYPPPRDSYSSSSRGAPRGGGRGGSRSDRGGGRSRY
B2: recombinant hnRNPG RRMmut (natural protein, human, UniProt P38159 1-391, looked up)
chain: MVEADRPGALAIGGLNTETNEKALEAVFGKYGRIVEVLLMKDRETNKSAGAAAVTFESPADAKDAARDMNGKSLDGKAIKVEQATKPSFESGRRGPPPPPRSRGPPRGLRGGRGGSGGTRGPPSRGGHMDDGGYSMNFNMSSSRGPLPVKRGPPPRSGGPPPKRSAPSGPVRSSSGMGGRAPVSRGRDSYGGPPRREPLPSRRDVYLSPRDDGYSTKDSYSSRDYPSSRDTRDYAPPPRDYTYRDYGHSSSRDDYPSRGYSDRDGYGRDRDYSDHPSGGSYRDSYESYGNSRSAPPTRGPPPSYGGSSRYDDYSSSRDGYGGSRDSYSSSRSDLYSSGRDRVGRQERGLPPSMERGYPPPRDSYSSSSRGAPRGGGRGGSRSDRGGGRSRY
B3: recombinant hnRNPG RGG2mut (natural protein, human, UniProt P38159 1-391, looked up)
chain: MVEADRPGKLFIGGLNTETNEKALEAVFGKYGRIVEVLLMKDRETNKSRGFAFVTFESPADAKDAARDMNGKSLDGKAIKVEQATKPSFESGRRGPPPPPRSRGPPRGLRGGRGGSGGTRGPPSRGGHMDDGGYSMNFNMSSSRGPLPVKRGPPPRSGGPPPKRSAPSGPVRSSSGMGGRAPVSRGRDSYGGPPRREPLPSRRDVYLSPRDDGYSTKDSYSSRDYPSSRDTRDYAPPPRDYTYRDYGHSSSRDDYPSRGYSDRDGYGRDRDYSDHPSGGSYRDSYESYGNSRSAPPTRGPPPSYGGSSRYDDYSSSRDGYGGSRDSYSSSRSDLYSSGRDRVGRQERGLPPSMERGYPPPRDSYSSSSAGAPAGGGAGGSRSDRGGGRSRY

Target: the molecule itself
Experiment: dynamic light scattering

Binding result, binds:
B1, B2, B3

— article PMC6778029 (Molecular cell, 2019)
